Drawing on article PMC3982596, this text covers percent of cells with the binder for one substance.

This assay has as its target YFP-LacI-HP1α (human) (UniProt P45973).
Sequence of UniProt P45973 (P45973 whole entry): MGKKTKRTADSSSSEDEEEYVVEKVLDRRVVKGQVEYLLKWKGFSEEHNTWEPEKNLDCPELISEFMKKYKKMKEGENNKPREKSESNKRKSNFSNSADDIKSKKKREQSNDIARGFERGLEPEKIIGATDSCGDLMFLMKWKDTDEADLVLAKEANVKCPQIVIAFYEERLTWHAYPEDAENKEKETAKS

In turn, “CFP-NDR1 (from UniProt Q15208 1-465) (enzyme)” showed a percent of cells with the binder at the tethered locus (% of the cells) of 18.
